What was measured:
[1] = molecular target: T1, cynomolgus (NHP) CD3 on cynomolgus pan-T cells (cynomolgus); assay: flow cytometry on cynomolgus pan-T cells
T1 construct: whole, on cells; also called cynomolgus CD3
Experimental: (§1) The CD3-specific Fab binding arm is presumed responsible for the observed binding. A Hen Egg Lysozyme (HEL)-specific antibody was used as the negative isotype control. Binding was measured via flow cytometry at various concentrations of test articles using a fluorescently labeled secondary antibody specific for the Fc domain of IgG1. The apparent affinity calculated for each test subject based on the data is shown under each graph. […] Binding to mouse CD3 was not tested because the anti-CD3 clone, 1F3-3, incorporated into the TCE is a humanized variant of clone SP34, which was derived in mouse and is well described as not binding mouse CD3.
(§2) Adherent target cells were collected by brief TrypLE treatment while suspension cells were directly collected. Collected cells were washed once with PBS by centrifugation at 500×g for 5 minutes at room temperature and added to V-bottom 96-well plate (200,000-300,000 cells per well). To prepared Live/Dead fixable red, one vial of powder was dissolved into 50 uL of DMSO to make stock solution and then diluted 1 uL of stock Live/Dead fixable red in 1 mL of PBS to prepare the working solution. 100 uL of Live/Dead fixable red working buffer was then added to the cell in the V-bottom 96-well plate (200,000-300,000 cells per well) and incubated for 15 minutes at room temperature. […] The samples were then analyzed on Cytek flow cytometer.

[2] = molecular target: T2, mouse ROR1 on mouse 4T1 cells (mouse, UniProt Q9Z139 30-937); assay: flow cytometry on 4T1 cells expressing mouse ROR1
T2 construct: whole, on cells

[3] = molecular target: T3, human ROR1 (Receptor Tyrosine Kinase-Like Orphan Receptor 1) on the cell surface (human, UniProt Q01973 30-937); assay: flow cytometry on MDA-MB-231 variants, low ROR1 density; low cell surface density of ROR1
T3 construct: whole, on cells; engineered into B16-F10 (high density) and LS174T (low density) cells; also called B16-F10-ROR1-H; LS174T-ROR1-L
Experimental: (§3) Binding of 2A11 (black line), 5A1 (dark grey line) and VHH8 (medium grey line) were tested in TCE format 12A. The commercial ROR1 specific Ab reported to bind the ROR1-Ig domain 2A2 (light grey line), served as the positive control and anti-HEL (dotted black line) served as the negative control. To better visualize binding of each test article to the three cells lines, we plotted MFI on the y-axis for each test article for HEK-293 cells (negative control; FIG. 4I), HEK-293 cells transfected with full length human ROR1 (FIG. 4J) and HEK-293 cells transfected with the ROR1 Ig domain linked to the cell surface via the GPI linker from CD59 (FIG. 4K).
as §2

[4] = molecular target: T4, recombinant His tagged human ROR1 (human, UniProt Q01973 30-403, limits assumed); assay: BLI (Octet), FUSE protein loaded on the biosensor, His tagged ROR1 in solution
T4 construct: Analyte in the BLI assay; also called Human ROR1-His; recombinant ROR1
Experimental: (§4) As shown in FIGS. 5A-5D, the binding affinities (KD) of TCEs for ROR1 were assessed. We examined the magnitude by which several TCEs and mutants thereof bind to recombinant ROR1. Kinetic binding graphs were generated via Bio-Layer Interferometry (BLI) using an Octet system. For each TCE, the biosensor tips were coated with FUSE proteins at 15 μg/ml and probed with either recombinant His tagged ROR1 at concentrations ranging from 100 pM to 10 μM. […] The binding affinity (KD), on rate (k-on) and off rate (k-dis), are summarized for ROR1 in FIG. 5D.
(§5) Antibodies were prepared in 1×PBS with 0.02% Tween-20 with the final concentration of 15 ug/ml. Human ROR1-His or CD3e-His protein were also prepared, and serial diluted (4-fold dilution ranging from 400 nM to 0.098 nM) in 1×PBS with 0.02% Tween-20. The biosensors were pre-moistened in 200 uL of 1×PBS with 0.02% Tween-20 for 10 minutes. Meanwhile, Octet BLI system (ForteBio) was prewarmed for 30 minutes and the flow rate was set to 1000 rpm. The biosensors (Anti-hIgG Fc Capture biosensor) were soaked in 250 uL of 1×PBS with 0.02% Tween-20 for 60 seconds at 30° C. to get an initial baseline reading. After the 60-second baseline reading, the biosensors were exposed to testing antibody for 300 seconds at 30° C. for the association between antibody and the biosensors (coupling antibody with biosensor). The biosensors with antibody were then exposed to human ROR1 or CD3e in 250 uL of 1×PBS with 0.02% Tween-20 at 30° C. for 300 seconds for the association reaction between antibody and human ROR1 or CD3e (association curve). After 300-second association reaction between antibody and antigen, the biosensors with antibody and antigen were then exposed to 250 uL of 1×PBS with 0.02% Tween-20 at 30° C. for 300 seconds for the dissociation reaction between antibody and […]. The binding affinity was calculated by the built-in data fitting algorithm.

[5] = molecular target: T3, human ROR1 (Receptor Tyrosine …); assay: flow cytometry on MDA-MB-231 variants, high ROR1 density; high cell surface density of ROR1
Experimental: as §3, §2

[6] = molecular target: T4, recombinant His tagged human ROR1; assay: BLI (Octet), FUSE protein loaded on the biosensor, His tagged ROR1 in solution; column 'kdis(1/s)'
Experimental: as §4, §5

[7] = molecular target: T3, human ROR1 (Receptor Tyrosine …); assay: flow cytometry on MDA-MB-231 ROR1 low cells (about 17,000 ROR1 per cell), secondary antibody to the IgG1 Fc
Experimental: as §3
as §2, with “temperature. After the 15-minute incubation, the cells were washed twice with PBS by centrifugation at 500 g for 5 minutes at room temperature. The cells were then cultured with antibodies at different concentrations in 100 uL of Biolegend staining buffer at 4° C. for 45 minutes. After the 45-minute incubation with primary antibody, the cells were washed with PBS by centrifugation at 500 g for 5 minutes at room temperature. The cells were then cultured with PE-Cy7-conjugated mouse-anti-human IgG secondary antibody in Biolegend staining buffer at 4° C. for 45 minutes.” for “temperature.”

[8] = molecular target: T3, human ROR1 (Receptor Tyrosine …); assay: flow cytometry on MDA-MB-231 ROR1 high cells (about 500,000 ROR1 per cell), secondary antibody to the IgG1 Fc
Experimental: as §3
as §2, with “temperature. After the 15-minute incubation, the cells were washed twice with PBS by centrifugation at 500 g for 5 minutes at room temperature. The cells were then cultured with antibodies at different concentrations in 100 uL of Biolegend staining buffer at 4° C. for 45 minutes. After the 45-minute incubation with primary antibody, the cells were washed with PBS by centrifugation at 500 g for 5 minutes at room temperature. The cells were then cultured with PE-Cy7-conjugated mouse-anti-human IgG secondary antibody in Biolegend staining buffer at 4° C. for 45 minutes.” for “temperature.”

[9] = molecular target: T5, human CD3 on T cells (human, UniProt P07766 23-207; P09693 23-182; P04234 22-171; P20963 22-164); assay: flow cytometry on Jurkat T cells, fluorescent secondary antibody to the IgG1 Fc; table row 'Binding EC50 (Kd)'
T5 construct: whole, on cells; also called human CD3 on Jurkat T cells; human CD3 on T cells isolated from human PBMC
Experimental: as §1, §2

[10] = molecular target: T3, human ROR1 (Receptor Tyrosine …); assay: flow cytometry on MDA-MB-231 ROR1 normal cells (about 35,000 ROR1 per cell), secondary antibody to the IgG1 Fc
Experimental: as §3
as §2, with “temperature. After the 15-minute incubation, the cells were washed twice with PBS by centrifugation at 500 g for 5 minutes at room temperature. The cells were then cultured with antibodies at different concentrations in 100 uL of Biolegend staining buffer at 4° C. for 45 minutes. After the 45-minute incubation with primary antibody, the cells were washed with PBS by centrifugation at 500 g for 5 minutes at room temperature. The cells were then cultured with PE-Cy7-conjugated mouse-anti-human IgG secondary antibody in Biolegend staining buffer at 4° C. for 45 minutes.” for “temperature.”

[11] = molecular target: T3, human ROR1 (Receptor Tyrosine …); assay: flow cytometry on MDA-MB-231 ROR1 super high cells (about 2,000,000 ROR1 per cell), secondary antibody to the IgG1 Fc
Experimental: as §3
as §2, with “temperature. After the 15-minute incubation, the cells were washed twice with PBS by centrifugation at 500 g for 5 minutes at room temperature. The cells were then cultured with antibodies at different concentrations in 100 uL of Biolegend staining buffer at 4° C. for 45 minutes. After the 45-minute incubation with primary antibody, the cells were washed with PBS by centrifugation at 500 g for 5 minutes at room temperature. The cells were then cultured with PE-Cy7-conjugated mouse-anti-human IgG secondary antibody in Biolegend staining buffer at 4° C. for 45 minutes.” for “temperature.”

[12] = molecular target: T1, cynomolgus (NHP) CD3 on cynomolgus …; assay: flow cytometry on cynomolgus pan T cells, fluorescent secondary antibody to the IgG1 Fc; table row 'Binding EC50 (Kd)'
Experimental: as §1, §2

[13] = molecular target: T5, human CD3 on T cells; assay: flow cytometry on human pan T cells (T cells isolated from human PBMC), fluorescent secondary antibody to the IgG1 Fc; table row 'Binding EC50 (Kd)'
Experimental: as §1, §2

T4 sequence (Q01973 30-403 limits assumed): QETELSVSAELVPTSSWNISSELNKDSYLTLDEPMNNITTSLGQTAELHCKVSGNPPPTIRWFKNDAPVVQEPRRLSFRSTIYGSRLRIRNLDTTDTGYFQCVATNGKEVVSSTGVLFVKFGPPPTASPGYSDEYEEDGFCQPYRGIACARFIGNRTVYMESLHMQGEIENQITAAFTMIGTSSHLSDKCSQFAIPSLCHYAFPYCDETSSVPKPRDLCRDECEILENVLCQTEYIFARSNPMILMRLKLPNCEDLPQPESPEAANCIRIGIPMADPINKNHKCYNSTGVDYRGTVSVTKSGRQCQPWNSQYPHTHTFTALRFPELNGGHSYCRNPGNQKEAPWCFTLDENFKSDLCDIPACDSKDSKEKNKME
T3 sequence (Q01973 30-937): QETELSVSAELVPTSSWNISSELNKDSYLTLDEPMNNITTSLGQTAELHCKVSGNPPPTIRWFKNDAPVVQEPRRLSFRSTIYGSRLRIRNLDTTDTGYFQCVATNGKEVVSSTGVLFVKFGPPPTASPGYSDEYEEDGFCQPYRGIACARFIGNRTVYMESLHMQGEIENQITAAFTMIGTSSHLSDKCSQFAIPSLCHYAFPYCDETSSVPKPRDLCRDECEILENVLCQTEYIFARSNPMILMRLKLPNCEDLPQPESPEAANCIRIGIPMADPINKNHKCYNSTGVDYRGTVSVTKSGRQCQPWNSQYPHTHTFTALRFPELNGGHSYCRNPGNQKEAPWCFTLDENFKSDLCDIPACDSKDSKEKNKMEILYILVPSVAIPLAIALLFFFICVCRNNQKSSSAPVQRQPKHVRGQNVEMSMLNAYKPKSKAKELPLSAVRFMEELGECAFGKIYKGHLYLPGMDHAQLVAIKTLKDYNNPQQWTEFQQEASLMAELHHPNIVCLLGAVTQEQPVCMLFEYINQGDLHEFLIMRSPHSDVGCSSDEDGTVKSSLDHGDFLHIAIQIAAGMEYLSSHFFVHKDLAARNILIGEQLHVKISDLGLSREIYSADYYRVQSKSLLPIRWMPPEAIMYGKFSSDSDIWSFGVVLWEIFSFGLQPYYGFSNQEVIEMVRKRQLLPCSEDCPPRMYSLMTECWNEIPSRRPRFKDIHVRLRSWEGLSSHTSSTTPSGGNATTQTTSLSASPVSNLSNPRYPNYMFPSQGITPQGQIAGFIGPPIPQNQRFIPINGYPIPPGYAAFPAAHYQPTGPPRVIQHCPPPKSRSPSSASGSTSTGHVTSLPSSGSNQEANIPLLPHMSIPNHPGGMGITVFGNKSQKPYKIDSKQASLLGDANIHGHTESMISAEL
T5 sequence (P07766 23-207, chain 1 of 4): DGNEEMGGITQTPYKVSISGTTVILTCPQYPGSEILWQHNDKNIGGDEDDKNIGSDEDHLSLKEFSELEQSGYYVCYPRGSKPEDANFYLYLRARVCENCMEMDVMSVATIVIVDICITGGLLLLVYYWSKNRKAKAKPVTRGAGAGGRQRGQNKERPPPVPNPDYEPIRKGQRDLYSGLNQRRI
T5 sequence (P09693 23-182, chain 2 of 4): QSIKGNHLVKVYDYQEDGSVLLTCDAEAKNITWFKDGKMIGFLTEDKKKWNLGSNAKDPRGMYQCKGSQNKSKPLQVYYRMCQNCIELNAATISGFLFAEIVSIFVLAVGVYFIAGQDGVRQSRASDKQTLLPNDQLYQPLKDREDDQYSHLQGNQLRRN
T5 sequence (P04234 22-171, chain 3 of 4): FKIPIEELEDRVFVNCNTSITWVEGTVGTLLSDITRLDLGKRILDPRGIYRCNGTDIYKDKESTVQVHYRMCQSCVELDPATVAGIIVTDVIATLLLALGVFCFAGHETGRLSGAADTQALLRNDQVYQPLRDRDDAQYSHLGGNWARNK
T5 sequence (P20963 22-164, chain 4 of 4): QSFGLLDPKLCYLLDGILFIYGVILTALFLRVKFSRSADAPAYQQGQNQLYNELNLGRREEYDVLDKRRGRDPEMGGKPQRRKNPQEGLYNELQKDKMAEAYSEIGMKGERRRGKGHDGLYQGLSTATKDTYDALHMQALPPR
T2 sequence (Q9Z139 30-937): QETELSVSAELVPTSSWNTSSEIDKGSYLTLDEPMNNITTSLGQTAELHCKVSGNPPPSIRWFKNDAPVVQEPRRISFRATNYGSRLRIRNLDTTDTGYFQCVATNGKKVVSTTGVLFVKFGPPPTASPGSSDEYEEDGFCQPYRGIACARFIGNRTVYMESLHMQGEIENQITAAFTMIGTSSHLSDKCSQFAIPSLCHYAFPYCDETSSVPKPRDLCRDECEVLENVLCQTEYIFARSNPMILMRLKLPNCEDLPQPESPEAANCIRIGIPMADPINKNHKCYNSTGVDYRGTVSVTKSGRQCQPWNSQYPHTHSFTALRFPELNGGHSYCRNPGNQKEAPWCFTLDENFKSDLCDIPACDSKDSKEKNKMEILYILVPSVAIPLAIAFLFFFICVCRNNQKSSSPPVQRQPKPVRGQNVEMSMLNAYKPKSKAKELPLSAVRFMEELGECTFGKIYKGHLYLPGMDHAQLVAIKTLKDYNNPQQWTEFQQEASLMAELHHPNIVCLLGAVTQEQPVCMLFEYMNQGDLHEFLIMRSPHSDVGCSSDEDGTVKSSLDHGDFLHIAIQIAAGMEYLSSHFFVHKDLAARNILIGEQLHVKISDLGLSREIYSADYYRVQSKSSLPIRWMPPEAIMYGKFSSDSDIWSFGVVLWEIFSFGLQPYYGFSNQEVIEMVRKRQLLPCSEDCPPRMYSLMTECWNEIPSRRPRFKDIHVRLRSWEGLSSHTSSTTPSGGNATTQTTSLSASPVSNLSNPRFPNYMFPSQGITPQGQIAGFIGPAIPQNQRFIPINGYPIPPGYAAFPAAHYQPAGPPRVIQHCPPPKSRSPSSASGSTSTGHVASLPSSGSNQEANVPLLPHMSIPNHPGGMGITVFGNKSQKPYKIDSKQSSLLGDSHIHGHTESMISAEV

B1: FUSE-394 (bispecific antibody, human IgG1, lambda, L234A L235A)
chain: QVQLQESGGGSVQAGGSLKLSCTASGYTNRLKCMGWFRQAPGKEREEIATISTGTGNTYYADSVKGRFTFSQDKVKNTVYLQMNTLKPDDTGMYYCAADVRPDGTTCHYNSGGQGTQVTVSSEPKSSDKTHTCPPCPAPEAAGGPSVFLFPPKPKDTLMISRTPEVTCVVVDVSHEDPEVKFNWYVDGVEVHNAKTKPREEQYNSTYRVVSVLTVLHQDWLNGKEYKCKVSNKALPAPIEKTISKAKGQPREPQVYTLPPSREEMTKNQVSLSCAVKGFYPSDIAVEWESNGQPENNYKTTPPVLDSDGSFFLVSKLTVDKSRWQQGNVFSCSVMHEALHNRFTQKSLSLSPGK
heavy: EVQLVESGGGLVQPGGSLRLSCAASGFTFSTYAMNWVRQAPGKGLEWVARIRSKYNNYATYYADSVKDRFTISRDDSKNTLYLQMNSLRAEDTAVYYCARHGNFGNSYVSWFAYWGQGTMVTVSSASTKGPSVFPLAPSSKSTSGGTAALGCLVKDYFPEPVTVSWNSGALTSGVHTFPAVLQSSGLYSLSSVVTVPSSSLGTQTYICNVNHKPSNTKVDKKVEPKSCDKTHTCPPCPAPEAAGGPSVFLFPPKPKDTLMISRTPEVTCVVVDVSHEDPEVKFNWYVDGVEVHNAKTKPREEQYNSTYRVVSVLTVLHQDWLNGKEYKCKVSNKALPAPIEKTISKAKGQPREPQVYTLPPSREEMTKNQVSLWCLVKGFYPSDIAVEWESNGQPENNYKTTPPVLDSDGSFFLYSKLTVDKSRWQQGNVFSCSVMHEALHNHYTQKSLSLSPGK
light: QAVVTQEPSLTVSPGGTVTLTCRSSTGAVTTSNYANWVQQKPGQAPRGLIGGTNKRAPGTPARFSGSLLGGKAALTLSGVQPEDEAEYYCALWYSNLWVFGGGTKLTVLGQPKAAPSVTLFPPSSEELQANKATLVCLISDFYPGAVTVAWKADSSPVKAGVETTTPSKQSNNKYAASSYLSLTPEQWKSHRSYSCQVTHEGSTVEKTVAPTECSGGGGSGGGGSGGGGSGGGGSQVQLQESGGGSVQAGGSLKLSCTASGYTNRLKCMGWFRQAPGKEREEIATISTGTGNTYYADSVKGRFTFSQDKVKNTVYLQMNTLKPDDTGMYYCAADVRPDGTTCHYNSGGQGTQVTVSS
notes: Hole chain: 5A1-Fc; knob chain: anti-CD3 Fab heavy chain-Fc; light chain: anti-CD3 light chain-linker-5A1; also called format 13cA incorporating the 5A1 ROR1-specific VHH
B1 was tested, and the “fold difference in apparent binding affinity, cynomolgus against human CD3” value [1] was under 2 fold, the binding result [2] was “no binding” and the EC50 [3] was about 100 nM. It also gave a Kd [4] of 56.9 nM, a kon [4] of 28700 M⁻¹ s⁻¹ and an EC50 [5] of about 5 nM. The koff [6] was 0.00163 s⁻¹, the EC50 [7] was 69.7 nM and the EC50 [8] was 19.5 nM. The EC50 [9] was 10.6 nM, the EC50 [10] was 154 nM and the EC50 [11] was 6.1 nM. The EC50 [12] was 7.46 nM and the EC50 [13] was 10.5 nM.
